Test: melting temperature; melt of duplexes
Conditions: sodium 0.0675 M; strand 1 µM

Substance	Tm [°C]
CGACGTGCCACATGTGCTG+CAGCACATTAGGCACGTCG (((((((((..((((((((+))))))))..)))))))))	54.2
CGACGTGCGAAATGTGCTG+CAGCACATACCGCACGTCG (((((((((..((((((((+))))))))..)))))))))	53.9
CGACGTGCTCTATGTGCTG+CAGCACATGGAGCACGTCG ((((((((((.((((((((+)))))))).))))))))))	59.7
CGACGTGCGAGATGTGCTG+CAGCACATTGGGCACGTCG ((((((((...((((((((+))))))))...))))))))	51.9
CGACGTGCGCGATGTGCTG+CAGCACATAAGGCACGTCG ((((((((...((((((((+))))))))...))))))))	50
CGACGTGCGTTATGTGCTG+CAGCACATAACGCACGTCG (((((((((((((((((((+)))))))))))))))))))	63.6
CGACGTGCTCCATGTGCTG+CAGCACATAAAGCACGTCG (((((((((..((((((((+))))))))..)))))))))	50.9
CGACGTGCAGGATGTGCTG+CAGCACATCTGGCACGTCG ((((((((..(((((((((+)))))))))..))))))))	57.1
CGACGTGCGTTATGTGCTG+CAGCACATGTCGCACGTCG (((((((((..((((((((+))))))))..)))))))))	55
CGACGTGCCAGATGTGCTG+CAGCACATCGCGCACGTCG ((((((((..(((((((((+)))))))))..))))))))	55.4
CGACGTGCCGAATGTGCTG+CAGCACATTGAGCACGTCG ((((((((..(((((((((+)))))))))..))))))))	53.3
CGACGTGCACTATGTGCTG+CAGCACATTCCGCACGTCG ((((((((...((((((((+))))))))...))))))))	42.2
CGACGTGCAACATGTGCTG+CAGCACATCATGCACGTCG (((((((((..((((((((+))))))))..)))))))))	49
CGACGTGCATTATGTGCTG+CAGCACATCGGGCACGTCG ((((((((...((((((((+))))))))...))))))))	47
CGACGTGCTTAATGTGCTG+CAGCACATATGGCACGTCG ((((((((...((((((((+))))))))...))))))))	51.4
CGACGTGCTCAATGTGCTG+CAGCACATACAGCACGTCG (((((((((..((((((((+))))))))..)))))))))	50.7
CGACGTGCGTTATGTGCTG+CAGCACATGAAGCACGTCG ((((((((.(.((((((((+)))))))).).))))))))	54.8
CGACGTGCAATATGTGCTG+CAGCACATTGTGCACGTCG (((((((((..((((((((+))))))))..)))))))))	49.1
CGACGTGCCATATGTGCTG+CAGCACATTAGGCACGTCG (((((((((..((((((((+))))))))..)))))))))	55.6
CGACGTGCACTATGTGCTG+CAGCACATGTTGCACGTCG (((((((((..((((((((+))))))))..)))))))))	48.9
CGACGTGCCCCATGTGCTG+CAGCACATTTCGCACGTCG ((((((((...((((((((+))))))))...))))))))	46
CGACGTGCAGGATGTGCTG+CAGCACATGATGCACGTCG (((((((((..((((((((+))))))))..)))))))))	55
CGACGTGCTAAATGTGCTG+CAGCACATAACGCACGTCG ((((((((...((((((((+))))))))...))))))))	50
CGACGTGCTTAATGTGCTG+CAGCACATTCAGCACGTCG (((((((((.(((((((((+))))))))).)))))))))	55.5
CGACGTGCGCTATGTGCTG+CAGCACATCCTGCACGTCG ((((((((...((((((((+))))))))...))))))))	48.1
CGACGTGCGAAATGTGCTG+CAGCACATCGGGCACGTCG ((((((((...((((((((+))))))))...))))))))	48.6
CGACGTGCGGTATGTGCTG+CAGCACATTGTGCACGTCG ((((((((...((((((((+))))))))...))))))))	47.2
CGACGTGCCAGATGTGCTG+CAGCACATGATGCACGTCG ((((((((...((((((((+))))))))...))))))))	49.4

From the array DNA melting data of Ke et al.
